According to article PMC10527483:

Assays:
Assay in all cases: pull-down
[1] = biological target: T1, QKI5 (human, UniProt Q96PU8 1-341)
T1 sequence: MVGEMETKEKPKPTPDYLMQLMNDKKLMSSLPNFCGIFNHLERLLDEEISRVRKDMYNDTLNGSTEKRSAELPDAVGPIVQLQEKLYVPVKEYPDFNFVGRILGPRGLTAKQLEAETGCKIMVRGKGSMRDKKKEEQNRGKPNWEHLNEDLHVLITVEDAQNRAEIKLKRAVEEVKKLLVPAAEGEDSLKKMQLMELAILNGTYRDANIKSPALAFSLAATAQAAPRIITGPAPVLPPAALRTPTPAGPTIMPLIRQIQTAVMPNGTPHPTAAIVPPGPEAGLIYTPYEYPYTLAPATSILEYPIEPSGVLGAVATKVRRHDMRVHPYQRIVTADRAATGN

[2] = biological target: T2, QKI6 (human, UniProt Q96PU8-9 1-319)
T2 sequence: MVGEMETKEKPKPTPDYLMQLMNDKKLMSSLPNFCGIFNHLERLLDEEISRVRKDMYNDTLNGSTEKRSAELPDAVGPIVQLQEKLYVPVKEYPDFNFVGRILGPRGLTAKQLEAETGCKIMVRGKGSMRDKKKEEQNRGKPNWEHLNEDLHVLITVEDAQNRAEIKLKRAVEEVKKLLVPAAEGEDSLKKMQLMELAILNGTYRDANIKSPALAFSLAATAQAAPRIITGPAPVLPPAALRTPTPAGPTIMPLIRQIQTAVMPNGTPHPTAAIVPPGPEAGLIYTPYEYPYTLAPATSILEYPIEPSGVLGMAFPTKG

[3] = biological target: T3, QKI7 (human, UniProt Q96PU8-6 1-325)
T3 sequence: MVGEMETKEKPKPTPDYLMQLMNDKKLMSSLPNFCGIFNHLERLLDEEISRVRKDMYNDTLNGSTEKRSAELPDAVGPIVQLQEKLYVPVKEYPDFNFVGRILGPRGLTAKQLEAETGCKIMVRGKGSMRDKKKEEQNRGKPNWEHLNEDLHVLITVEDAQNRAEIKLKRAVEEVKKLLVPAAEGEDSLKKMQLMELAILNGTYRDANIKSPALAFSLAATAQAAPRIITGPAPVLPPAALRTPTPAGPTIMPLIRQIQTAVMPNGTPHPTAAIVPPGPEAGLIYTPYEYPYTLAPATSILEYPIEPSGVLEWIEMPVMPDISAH

Measured: binding result

B1: m7G-Oligo, 60-mer (ssRNA)
RNA: CCAAUAAAAUAUUAACCACCAAUAAAAUAUUAACCAAGAUCCACCAAUAAAAUAUUAACC
modifications: N7-methylguanosine at G38 (the only G)
binds: all assays above
